Results as given in patent publication US20260132173A1 (JOON HAENG, published 2026).

Biological target: T1, human TLR5 expressed from p3xFlag-hTLR5 in HEK293T cells (human, UniProt O60602 21-858)
T1 construct: whole, on cells; In the reporter assays the receptor stood on transfected HEK293T cells; In the Co-IP it stood in the RIPA lysate of such cells and was pulled down with an anti-Flag antibody; also called Toll-like receptor 5; not shown: 3xFlag tag of plasmid p3xFlag-hTLR5
Assay: Co-IP: 3xFlag-hTLR5 HEK293T lysate, anti-Flag pull-down, western blot with anti-Myc-HRP

T1 sequence (O60602 21-858): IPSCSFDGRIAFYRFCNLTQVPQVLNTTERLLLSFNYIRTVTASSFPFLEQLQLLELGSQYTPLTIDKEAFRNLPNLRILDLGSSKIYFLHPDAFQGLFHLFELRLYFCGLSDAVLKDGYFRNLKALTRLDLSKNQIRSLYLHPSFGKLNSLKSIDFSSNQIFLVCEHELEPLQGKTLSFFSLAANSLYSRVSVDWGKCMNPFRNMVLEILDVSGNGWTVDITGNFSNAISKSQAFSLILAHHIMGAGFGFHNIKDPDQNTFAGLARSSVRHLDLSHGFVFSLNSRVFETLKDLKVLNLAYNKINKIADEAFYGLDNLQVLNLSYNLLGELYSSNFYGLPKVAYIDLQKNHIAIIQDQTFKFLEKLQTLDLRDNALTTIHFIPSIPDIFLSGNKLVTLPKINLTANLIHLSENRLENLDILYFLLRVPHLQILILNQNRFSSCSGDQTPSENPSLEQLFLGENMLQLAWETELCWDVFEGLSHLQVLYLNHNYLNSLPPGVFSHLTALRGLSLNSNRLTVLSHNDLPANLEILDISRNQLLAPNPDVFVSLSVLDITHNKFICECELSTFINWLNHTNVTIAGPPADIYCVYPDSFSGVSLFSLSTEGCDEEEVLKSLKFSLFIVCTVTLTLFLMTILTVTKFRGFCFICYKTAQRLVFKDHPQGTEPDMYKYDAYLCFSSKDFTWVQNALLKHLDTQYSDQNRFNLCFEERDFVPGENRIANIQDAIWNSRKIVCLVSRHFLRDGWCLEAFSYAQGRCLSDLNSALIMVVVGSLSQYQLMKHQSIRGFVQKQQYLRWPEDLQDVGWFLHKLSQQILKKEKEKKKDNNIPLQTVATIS

B1: wild-type flagellin (eukFlaB) expressed in Expi293 cells (ligand)
chain: AVNVNTNVAAMTAQRYLNNANSAQQTSMERLSSGFKINSAKDDAAGLQISNRLNVQSRGLDVAVRNANDGISIAQTAEGAMNETTNILQRMRDLSLQSANGSNSKSERVAIQEEVTALNDELNRIAETTSFGGNKLLNGTYGTKAMQIGADNGEAVMLSLKDMRSDNVMMGGVSYQAEEGKDKNWNVAAGDNDLTIALTDSFGNEQEIEINAKAGDDIEELATYINGQTDLVKASVGEGGKLQIFAGNNKVQGEIAFSGSLAGELGLGEGKNVTVDTIDVTTVQGAQESVAIVDAALKYVDSHRAELGAFQNRFNHAISNLDNINENVNASKSRIKDTDFAKETTQLTKTQILSQASSSILAQAKQAPNSALSLLG
modifications: N-glycosylated by expression in Expi293 cells; five putative sites predicted at N83, N101, N139, N273, N330
notes: Secreted through the IgK leader of pSectag2B; also called glycosylated-eFlaB; eukaryotic-expressed wild-type flagellin; not shown: C-terminal Myc tag (and His tag implied by Ni-NTA purification) from vector pSectag2B
binding result: no binding
